Values of other authors in article PMC3078175.

Molecular target: IL-17RB (Homo sapiens) (UniProt Q9NRM6)
Sequence of UniProt Q9NRM6 (Q9NRM6 18-292): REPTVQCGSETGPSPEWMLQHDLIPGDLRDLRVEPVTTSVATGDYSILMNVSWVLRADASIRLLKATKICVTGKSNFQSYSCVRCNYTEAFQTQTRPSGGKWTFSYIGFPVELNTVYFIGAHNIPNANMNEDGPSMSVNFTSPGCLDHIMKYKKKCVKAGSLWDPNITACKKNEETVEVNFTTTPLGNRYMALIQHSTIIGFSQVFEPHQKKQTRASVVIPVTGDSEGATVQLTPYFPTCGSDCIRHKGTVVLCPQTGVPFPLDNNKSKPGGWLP

In the case of IL-17B (from UniProt Q9UHF5), the Kd is listed as 7.6 nM.
